From US20020103133

Key:
[1] = tested on: acetyl-P-L-G-Hof-Orn-L-Dox
[2] = tested on: succinyl-P-L-G-Hof-Y-L-Dox

## MMP-9
acetyl-G-P-L-G-L-A-L-Dox
  kcat/Km (cleavage of conjugate, HPLC): 1.9e+07 M⁻¹ s⁻¹
acetyl-G-P-L-G-L-L-Dox
  kcat/Km (cleavage of conjugate, HPLC): 9.5e+07 M⁻¹ s⁻¹
acetyl-G-P-L-G-L-Y-Dox
  kcat/Km (cleavage of conjugate, HPLC): 1.1e+08 M⁻¹ s⁻¹
[1]
  kcat/Km (cleavage of conjugate, HPLC): 2.6e+07 M⁻¹ s⁻¹
acetyl-P-L-G-Hof-Y-L-Dox
  kcat/Km (cleavage of conjugate, HPLC): 3.4e+07 M⁻¹ s⁻¹
acetyl-P-L-G-L-A-A-L-Dox
  kcat/Km (cleavage of conjugate, HPLC): 1.65e+08 M⁻¹ s⁻¹
acetyl-P-L-G-L-A-L-Dox
  kcat/Km (cleavage of conjugate, HPLC): 2.4e+07 M⁻¹ s⁻¹
acetyl-P-L-G-L-L-A-L-Dox
  kcat/Km (cleavage of conjugate, HPLC): 1.3e+08 M⁻¹ s⁻¹
acetyl-P-L-G-L-L-Dox
  kcat/Km (cleavage of conjugate, HPLC): 1.3e+08 M⁻¹ s⁻¹
acetyl-P-L-G-L-L-S-L-Dox
  kcat/Km (cleavage of conjugate, HPLC): 1.49e+08 M⁻¹ s⁻¹
acetyl-P-L-G-L-Y-A-L-Dox
  kcat/Km (cleavage of conjugate, HPLC): 2.96e+08 M⁻¹ s⁻¹
acetyl-P-L-G-L-Y-L-Dox
  kcat/Km (cleavage of conjugate, HPLC): 3.9e+08 M⁻¹ s⁻¹
[2]
  kcat/Km (cleavage of conjugate, HPLC): > 1.2e+08 M⁻¹ s⁻¹
